Measurements: patent publication US20240166703A1, “ANTI-INFLAMMATORY PEPTIDE AND METHOD OF USE THEREOF” (The Regents of the University of California, priority 2021, published 2024)

Target: T1, polyubiquitin-dependent second interaction between NEMO and IKK2 (Homo sapiens, UniProt O14920)
T1 construct: proteins of HEK293T cells expressing full length human IKK2 were extracted; expressed in transfected cells; host or cells: HEK293T whole cell lysate supplied HA-IKK2; GST-NEMO 241-419 was expressed in E. coli Rosetta (DE3)
T1 sequence (O14920 1-756): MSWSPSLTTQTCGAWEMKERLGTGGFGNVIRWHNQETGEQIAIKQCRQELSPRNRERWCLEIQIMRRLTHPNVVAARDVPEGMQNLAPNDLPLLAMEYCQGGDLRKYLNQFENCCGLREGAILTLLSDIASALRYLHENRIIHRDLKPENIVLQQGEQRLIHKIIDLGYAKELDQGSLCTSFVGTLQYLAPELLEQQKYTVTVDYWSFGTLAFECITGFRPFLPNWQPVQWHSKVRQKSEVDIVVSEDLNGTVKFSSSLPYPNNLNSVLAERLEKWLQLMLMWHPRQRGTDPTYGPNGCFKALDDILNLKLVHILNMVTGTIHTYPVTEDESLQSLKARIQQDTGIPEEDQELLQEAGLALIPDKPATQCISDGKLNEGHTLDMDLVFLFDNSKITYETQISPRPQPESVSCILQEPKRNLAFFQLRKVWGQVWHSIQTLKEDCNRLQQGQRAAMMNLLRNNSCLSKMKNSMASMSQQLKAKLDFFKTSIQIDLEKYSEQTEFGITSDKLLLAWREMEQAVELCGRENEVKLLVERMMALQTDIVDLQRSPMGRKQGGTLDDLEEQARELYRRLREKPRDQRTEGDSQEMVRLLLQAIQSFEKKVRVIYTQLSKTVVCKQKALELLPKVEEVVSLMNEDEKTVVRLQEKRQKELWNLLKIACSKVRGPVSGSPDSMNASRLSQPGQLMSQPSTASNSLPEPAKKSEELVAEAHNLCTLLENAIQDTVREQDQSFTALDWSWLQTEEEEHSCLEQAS
Assay: Peptide in vitro GST pull-down from HA-IKK2-transfected HEK293T whole cell lysates
Assay type: binding
Conditions: peptide 200-25 μM
Description: Proteins of HEK293T cells transfected with full length human IKK2 or mutants were extracted using RIPA buffer. After centrifugation at 16,000×g for 20 minutes, the supernatants were adjusted to the binding buffer (containing 1.5 mU Hexokinase) and incubated on a rotating platform for 1 hour at 4° C. These whole-cell extracts were then incubated with E. coli-expressed GST-fusion NEMO in the absence or presence of Ub4 on a rotating platform for 2 hours at 4° C. The beads were centrifuged at 1,000×g for 2 minutes and washed four times in binding buffer. Proteins bound to beads were resuspended in SDS loading buffer, resolved by SDS-PAGE, and analyzed by western blot.
For peptide in vitro pull-down assay, proteins of HEK293T cells expressing full length human IKK2 were extracted using the same lysis buffer described above. Whole cell lysates were mixed with E. coli-expressed GST-NEMO with or without NEMO^ActPep or mNEMO^ActPep at different concentrations in the absence of presence of Ub4 and incubated on a rotating platform for 2 hours at 4° C. The beads were then washed four times in the binding buffer. Proteins bound to beads were resuspended in SDS-PAGE loading buffer, separated by SDS-PAGE, and analyzed by western blot. […]

Question: “TAT-NEMO^ActPep: HIV-1 TAT fused flexibly to human NEMO amino acids 375-391; cell permeable version of NEMO activation peptide (SEQ ID NO 2) (YGRKKRRQRRRGGLSSPLALPSQRRSPPEE)” was tested. Which “HA-IKK2 pulled down by GST-NEMO^241-419 in the presence of Ub4 (NEMO:IKK2 second interaction, western blot)” value did it give?
Answer: Its value is “loss of this interaction was observed with increasing concentrations”.
